Assay results taken from patent US20200010546A1 (TRICAN BIOTECHNOLOGY, published 2020).
Substitutions are numbered along the chain they refer to.

B1: CwP2F8 (IgG4-reformatted anti-CD47 antibody) (antibody, V domains shown)
VH: QVQLVQSGAEVKKPGSSVKVSCKASGGTFSSYAISWVRQAPGQGLEWMGRIIPILGIANYAQKFQGRVTITADKSTSTAYMELSSLRSEDTAVYYCARSLRWLHRVFDYWGQGTTVTVSS
VL: QSVLTQPASVSGSPGQSITISCTGTSSDVGGYNYVSWYQQHPGKAPKLIIFDVINRPSGVSSRFSGSKSGTSATLVITGLQTGDEADYYCGTWDNSLRAYVFGSGTNVTALG
notes: Full-length human IgG4, expressed in HEK293 cells
B2: CwP1C4 (IgG4-reformatted anti-CD47 antibody) (antibody, V domains shown)
VH: QVTLKESGPTLVKPTQTLTLTCTFSGLSLSTSGVGVGWIRQPPGKALEWLALIYWNDDKRYSPSLKSRLTVTKDTSKNQVVLTMTNMDPVDTATYYCAHLITFGGRRAFDIWGQGTMVTVSS
VL: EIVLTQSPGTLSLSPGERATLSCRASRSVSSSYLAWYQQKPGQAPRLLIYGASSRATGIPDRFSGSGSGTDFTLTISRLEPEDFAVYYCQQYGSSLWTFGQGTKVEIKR
notes: as for B1
B3: CwP2F12 (IgG4-reformatted anti-CD47 antibody) (antibody, V domains shown)
VH: QVQLVQSGAEVKKPGASVRLSCKASGYTFSSYYMHWVRQAPGQGLVWMGTSIPTAASGSYAQKFQGRVTMTRDTSTTTVYMELSSLRSEDTAVYYCARGGRGGFDYWGQGTPVTVSS
VL: QPGLTQPPSVSKGLRRTATLTCTGNSNNVGNQGAVWLQQHQGHPPKLLSYRNNNRPSGISERFSASRSANTASLTITGLQPEDEADYYCSAWDSSLSGWVFGGGTKLTVLG
notes: as for B1
B4: BrP1F3 (IgG4-reformatted anti-CD47 antibody) (antibody, V domains shown)
VH: QVQLVQSGAEVKKPGASVKVSCKASGYTFTSYYMHWVRQAPGQGLEWMGIINPSGGSTSYAQKFQGRVTMTRDTSTSTVYMELSSLRSEDTAVYYCARGGTLGMDVWGQGTTVTVSS
VL: SSELTQDPAVSVALGQTVRITCQGDSLRSYYASWYQQKPGQAPVLVIYGKNNRPSGIPDRFSGSSSGNTASLTITGAQAEDEADYYCNSRDSSGNHYVFGTGTKVTVLG
notes: as for B1
B5: BrP1F11 (IgG4-reformatted anti-CD47 antibody) (antibody, V domains shown)
VH: QVQLVQSGAEVKKPGASVKISCKASGYTFTTYHIHWVRQAPGQGLEWMGVINSNAGNTGYAQNFQDRVTMTRDTSTSTVYMELRSLKSDDTAVYYCAKDPGMGWYMHHWGQGTLVTVSS
VL: NFMLTQPQSVSGSPGETVTISCTGSGGPIASNYVQWYQQRPGSVPTTVIYEDTKRPSGVPDRFSGSIDSSSNSASLTISGLKTEDEADYYCQSYESRNYVFGTGTKVSVLS
notes: Full-length human IgG4, expressed in HEK293 cells; also called BrP1F11-G4
B6: CwP2F8 Fab (library clone) (Fab, V domains shown)
VH: B1 VH
VL: B1 VL
notes: Fab in bacterial supernatant
B7: CwP1A1 Fab (library clone) (Fab, V domains shown)
VH: B2 VH with V2I, L27F, S32R, V71I
VL: not shown
notes: Fab in bacterial supernatant
B8: CwP1C4 Fab (library clone) (Fab, V domains shown)
VH: B2 VH
VL: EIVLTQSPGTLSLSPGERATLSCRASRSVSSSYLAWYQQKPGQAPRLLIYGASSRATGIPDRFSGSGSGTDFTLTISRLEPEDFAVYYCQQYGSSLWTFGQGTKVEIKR
notes: Fab in bacterial supernatant
B9: CwP2F12 Fab (library clone) (Fab, V domains shown)
VH: B3 VH
VL: B3 VL
notes: Fab in bacterial supernatant
B10: BrP1F3 Fab (library clone) (Fab, V domains shown)
VH: B4 VH
VL: B4 VL
notes: Fab in bacterial supernatant
B11: BrP1F11 Fab (library clone) (Fab, V domains shown)
VH: B5 VH
VL: B5 VL
notes: Fab in bacterial supernatant

What follows are binders tested against T1, recombinant human CD47-Fc protein (R&D Systems, USA) (human, UniProt Q08722 19-139) (assay: blocking ELISA: CD47-Fc (1 µg/ml) binding to coated His-tagged SIRP-α).
T1 construct: Bought from R&D Systems; also called CD47-Fc fusion protein; recombinant CD47; not shown: Fc part of the bought fusion
T1 sequence (Q08722 19-139 limits assumed): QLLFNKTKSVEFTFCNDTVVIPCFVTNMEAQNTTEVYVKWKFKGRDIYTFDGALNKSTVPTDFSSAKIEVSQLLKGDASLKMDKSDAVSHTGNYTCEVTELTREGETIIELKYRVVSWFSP

Binder | IC50
B1 | 0.068 nM
B2 | 0.155 nM
B3 | 0.063 nM

These binders were tested against T2, recombinant human His-tagged SIRP-α protein (R&D Systems, USA) (human, UniProt P78324 31-370, limits assumed) (assay: direct ELISA, SIRP-α coated at 1 µg/ml).
T2 construct: Bought from R&D Systems; also called signal-regulatory protein alpha; not shown: His tag
T2 sequence (P78324 31-370 limits assumed): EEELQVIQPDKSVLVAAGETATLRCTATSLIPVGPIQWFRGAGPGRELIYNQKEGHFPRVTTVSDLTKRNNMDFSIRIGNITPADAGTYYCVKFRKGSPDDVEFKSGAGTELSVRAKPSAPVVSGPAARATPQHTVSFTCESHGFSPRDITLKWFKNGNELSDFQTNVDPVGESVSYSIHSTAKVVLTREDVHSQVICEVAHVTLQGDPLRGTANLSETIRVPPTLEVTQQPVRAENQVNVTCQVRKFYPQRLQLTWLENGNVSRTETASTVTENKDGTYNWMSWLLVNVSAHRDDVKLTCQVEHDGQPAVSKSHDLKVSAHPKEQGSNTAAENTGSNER

Binder | binding result
B1 | no binding (tested: 0.5 µg/ml)
B2 | no binding (tested: 0.5 µg/ml)
B3 | no binding (tested: 0.5 µg/ml)
B4 | no binding (tested: 0.5 µg/ml)
B5 | no binding (tested: 0.5 µg/ml)

The binders below were run against T1, recombinant human CD47-Fc protein (R&D …) (assay: titration ELISA on coated CD47-Fc).

Binder | EC50
B1 | 0.326 nM
B2 | 0.227 nM
B3 | 0.441 nM
B4 | 10.1 nM
B5 | 1.21 nM

What follows are binders tested against T1, recombinant human CD47-Fc protein (R&D …) (assay: ELISA of Fab supernatant on coated CD47-Fc).

Binder | OD450
B6 | > 0.5 OD450
B7 | > 0.5 OD450
B8 | > 0.5 OD450
B9 | > 0.5 OD450
B10 | > 0.5 OD450
B11 | > 0.5 OD450
